One molecule from paper PMC11417181 can be followed below.

For orientation: stoichiometry N means the number of molecules, sites or subunits per partner or assembly. What is called Kd is the concentration at which binding is half-saturated.

For test [1], the target named is T1, complement factor H, native glycosylated, full-length, purified from human plasma (human), P08603.
T1 chain: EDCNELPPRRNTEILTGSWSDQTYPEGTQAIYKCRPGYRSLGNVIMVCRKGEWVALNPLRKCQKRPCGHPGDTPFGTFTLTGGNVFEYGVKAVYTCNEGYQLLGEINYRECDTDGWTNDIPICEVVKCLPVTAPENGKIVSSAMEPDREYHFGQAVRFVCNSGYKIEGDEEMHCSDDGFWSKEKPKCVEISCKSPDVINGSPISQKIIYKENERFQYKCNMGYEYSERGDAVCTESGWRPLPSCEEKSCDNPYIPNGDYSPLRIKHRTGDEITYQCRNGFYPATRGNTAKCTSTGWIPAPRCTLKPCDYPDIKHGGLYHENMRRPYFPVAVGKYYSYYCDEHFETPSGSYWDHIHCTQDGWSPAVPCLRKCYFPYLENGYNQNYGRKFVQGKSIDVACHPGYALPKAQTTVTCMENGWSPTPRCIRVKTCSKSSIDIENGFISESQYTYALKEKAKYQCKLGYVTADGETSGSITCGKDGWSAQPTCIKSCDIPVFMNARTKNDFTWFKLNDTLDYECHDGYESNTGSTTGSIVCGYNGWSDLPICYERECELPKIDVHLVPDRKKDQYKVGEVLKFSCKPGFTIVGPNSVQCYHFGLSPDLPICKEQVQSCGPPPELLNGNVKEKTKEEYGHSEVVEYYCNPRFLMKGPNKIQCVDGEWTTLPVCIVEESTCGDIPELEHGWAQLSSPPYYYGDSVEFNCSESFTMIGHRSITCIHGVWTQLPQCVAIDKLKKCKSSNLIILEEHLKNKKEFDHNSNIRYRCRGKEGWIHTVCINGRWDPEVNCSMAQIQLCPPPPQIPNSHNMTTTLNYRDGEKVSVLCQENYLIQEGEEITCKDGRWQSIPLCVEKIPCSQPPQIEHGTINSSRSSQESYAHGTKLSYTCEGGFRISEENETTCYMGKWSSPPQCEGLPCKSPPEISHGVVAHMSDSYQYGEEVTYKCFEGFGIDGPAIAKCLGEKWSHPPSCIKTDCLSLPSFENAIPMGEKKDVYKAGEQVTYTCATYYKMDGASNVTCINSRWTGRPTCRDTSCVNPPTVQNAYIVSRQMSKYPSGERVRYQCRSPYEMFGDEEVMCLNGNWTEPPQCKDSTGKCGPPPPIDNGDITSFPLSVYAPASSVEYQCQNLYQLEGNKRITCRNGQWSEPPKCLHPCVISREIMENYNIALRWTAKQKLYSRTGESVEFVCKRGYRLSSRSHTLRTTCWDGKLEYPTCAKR
Description: AUC; sedimentation velocity of full-length CFH, 20 °C, 40,000 rpm, Hepes buffer, 0.2 to 1.8 mg/ml, c(s) analysis in SEDFIT, proportions from peak integration; monomer to dimer. Conditions: remark: other sources report otherwise.

The target of test [2] is T1, complement factor H, native …. Description: SPR; Biacore X100, biotinylated glycosylated CFH on a streptavidin chip (781 RU), CFH preparations flowed at 0.01 to 1.8 μM, Hepes buffer, single-cycle, 1:1 steady-state affinity fit. Conditions: remark: other sources report otherwise. On the technique in general: SPR reads the build-up and loss of mass on a sensor chip optically.

B1: complement factor H, native glycosylated, full-length, purified from human plasma, P08603 19-1231 (natural protein)
chain: EDCNELPPRRNTEILTGSWSDQTYPEGTQAIYKCRPGYRSLGNVIMVCRKGEWVALNPLRKCQKRPCGHPGDTPFGTFTLTGGNVFEYGVKAVYTCNEGYQLLGEINYRECDTDGWTNDIPICEVVKCLPVTAPENGKIVSSAMEPDREYHFGQAVRFVCNSGYKIEGDEEMHCSDDGFWSKEKPKCVEISCKSPDVINGSPISQKIIYKENERFQYKCNMGYEYSERGDAVCTESGWRPLPSCEEKSCDNPYIPNGDYSPLRIKHRTGDEITYQCRNGFYPATRGNTAKCTSTGWIPAPRCTLKPCDYPDIKHGGLYHENMRRPYFPVAVGKYYSYYCDEHFETPSGSYWDHIHCTQDGWSPAVPCLRKCYFPYLENGYNQNYGRKFVQGKSIDVACHPGYALPKAQTTVTCMENGWSPTPRCIRVKTCSKSSIDIENGFISESQYTYALKEKAKYQCKLGYVTADGETSGSITCGKDGWSAQPTCIKSCDIPVFMNARTKNDFTWFKLNDTLDYECHDGYESNTGSTTGSIVCGYNGWSDLPICYERECELPKIDVHLVPDRKKDQYKVGEVLKFSCKPGFTIVGPNSVQCYHFGLSPDLPICKEQVQSCGPPPELLNGNVKEKTKEEYGHSEVVEYYCNPRFLMKGPNKIQCVDGEWTTLPVCIVEESTCGDIPELEHGWAQLSSPPYYYGDSVEFNCSESFTMIGHRSITCIHGVWTQLPQCVAIDKLKKCKSSNLIILEEHLKNKKEFDHNSNIRYRCRGKEGWIHTVCINGRWDPEVNCSMAQIQLCPPPPQIPNSHNMTTTLNYRDGEKVSVLCQENYLIQEGEEITCKDGRWQSIPLCVEKIPCSQPPQIEHGTINSSRSSQESYAHGTKLSYTCEGGFRISEENETTCYMGKWSSPPQCEGLPCKSPPEISHGVVAHMSDSYQYGEEVTYKCFEGFGIDGPAIAKCLGEKWSHPPSCIKTDCLSLPSFENAIPMGEKKDVYKAGEQVTYTCATYYKMDGASNVTCINSRWTGRPTCRDTSCVNPPTVQNAYIVSRQMSKYPSGERVRYQCRSPYEMFGDEEVMCLNGNWTEPPQCKDSTGKCGPPPPIDNGDITSFPLSVYAPASSVEYQCQNLYQLEGNKRITCRNGQWSEPPKCLHPCVISREIMENYNIALRWTAKQKLYSRTGESVEFVCKRGYRLSSRSHTLRTTCWDGKLEYPTCAKR
modifications: here or on the partner: eight N-linked biantennary complex-type glycans, among them those at Asn1011 (SCR-17) and Asn1077 (SCR-18); eight N-linked biantennary complex-type glycans, among them those at Asn1011 (SCR-17) and Asn1077 (SCR-18)
In test [1], B1 gave a proportion of dimer of 4% and a stoichiometry N of 2. In test [2], this molecule displayed a dissociation constant (Kd) of 1600 nM.
